Substrate in the data set: NC(CCCC(N)C(=O)O)C(=O)O
In words: purified protein. It counts as biochemical, Crocosphaera subtropica. As to conditions: 0.1 mM PLP, 20 mM Tris-HCl pH 8.0, methods say room temperature, abstract says 30°C, DAP 0.5-15 mM.

Here are results for 1 protein from publication PMC12599289, “Kinetic and homology model analysis of diaminopimelate decarboxylase from Cyanothece sp. ATCC 51142: unveiling a key enzyme in lysine biosynthesis” (Bioscience Reports, 2025).

B1: CsDAPDC (Crocosphaera subtropica ATCC 51142) (protein)
chain: MIATPTKTPHTGQDYLKIKINATDSTKRSPNQSLLPLTANINAHDHLEIGGCDLQTLVEQFGSPLYILDEMTLRTACRQYRDNFQTYYKGESQVIYASKAWSCLAVVGVIARENLGFDVVSGGELYTTQKALTQLGYSCQEIAKKIYFHGNNKSEAELKEAIKVGCTIIVDNWLELQTLAQLGNDTPNLTIPILIRLTPGIECHTHEYIRTGHLDSKFGFDPNQLEAVFTYISQQTSLDCRGLHAHIGSQIFERQPHQDLAGVLVEWLKIGREYGLNLSELNIGGGLGICYTEEDDPPSIEEWVKAVSEAVMKACQRCEIDLPKLIAEPGRSLIGSACVTAYTVGSRKEIPELRTYIAVDGGMSDNPRPITYQSLYRVALANRMSAEISETVTIAGKHCESGDIVIKDAQLPQTHPGDILVIMGTGAYNYSMASNYNRLPRPAAVMVNQGEANLIVRRETYDDLIRQDCLPQRLLP
notes: tag removal not mentioned; dimer only from homology model
For the protein B1, the Km (usually the concentration of substrate that gives half-maximal velocity) came out at 1.20 ± 0.17 mM; the kcat (usually the number of substrate molecules converted per active site and unit of time at saturation) is 1.68 s⁻¹.
